Data as given in the supplement of paper PMC10567573.

B1: ZNF207 (parent)
chain: FPSAGQAQAAVQGPVGTDFKPLNS
B2: C19orf51 (parent)
chain: FAPQTGARPSETFARFCKSQESAL

Variants of: B1
Experiment: protein stability index of a GFP-peptide fusion (GPS, HEK-293T) (PSI 1-6); higher = more stable
Details: c terminus: a fixed tail appended
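Also: lentivirally expressed fusions sorted by FACS into six bins by GFP to DsRed ratio, PSI derived from sequencing read proportions per bin multiplied by bin number.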

Protein stability index of substitutions, site by site:
G16: K 3.12; L 3.21; M 3.04; N 3.65; P 3.42; Q 3.93; R 3.42; S 3.48; T 3.64; V 3.25; W 2.3; Y 2.9
T17: A 3.03; C 3.12; D 4.02; E 3.9; F 3.05; G 3.78; H 3.26; I 3.03; K 3.27; L 2.84; M 3.03; N 3.65; P 3.3; Q 4.12; R 3.19; S 3.88; V 2.81; W 2.25; Y 2.85
D18: A 3.31; C 2.65; E 3.63; F 2.34; G 2.8; H 2.74; I 2.67; K 2.99; L 2.32; M 2.85; N 3.79; P 3.11; Q 3.02; R 2.96; S 2.81; T 3.4; V 2.61; W 2.51; Y 2.36
F19: A 3.85; C 3.49; D 4.4; E 4.06; G 4.15; H 3.77; I 3.64; K 4.17; L 3.91; M 3.76; N 4.33; P 3.29; Q 3.97; R 4.11; S 4.03; T 3.55; V 3.35; W 3.41; Y 3.79
K20: A 3.2; C 3.85; D 4.07; E 3.98; F 2.35; G 3.77; H 3.49; I 3.34; L 3.2; M 3.33; N 3.72; P 3.35; Q 3.47; R 3.49; S 3.34; T 3.59; V 3.25; W 2.59; Y 2.79
P21: A 3.59; C 3.29; D 3.81; E 3.55; F 2.81; G 3.13; H 3.28; I 2.87; K 3.69; L 2.51; M 3.36; N 3.62; Q 3.88; R 3.77; S 3.62; T 3.17; V 2.87; W 2.67; Y 3.31
L22: A 3.67; C 3.35; D 4.46; E 3.81; F 3.61; G 3.25; H 4.15; I 3.71; K 3.58; M 3.69; N 4.33; P 3.63; Q 2.92; R 3.89; S 3.95; T 3.64; V 3.86; W 2.69; Y 3.61
N23: A 2.88; C 3.37; D 3.55; E 3.44; F 2.41; G 3.07; H 3.44; I 3.15; K 3.48; L 2.71; M 3.17; P 3.03; Q 3.22; R 3.91; S 3.25; T 3.45; V 2.93; W 2.01; Y 2.68
S24: A 3.36; C 3.31; D 4.02; E 3.77; F 2.63; G 3.15; H 3.73; I 2.98; K 3.71; L 3.12; M 3.08; N 3.92; P 3.54; Q 3.43; R 3.15; T 3.37; V 3.19; W 1.89; Y 2.63

Variants of: B2
Experiment: as above
Details: c terminus: a fixed tail appended

Protein stability index: each site, then its substitutions
R15: S 1.08; K 2.48; D 1.27; T 2.14; I 2.75; H 1.69; V 3.42; G 2.37; A 2.94
A14: E 1.77; N 1.44; G 1.74; L 2.12; F 1.33; S 1.89; Y 3.2; I 3.27
E21: Q 2.79; N 1.79; D 2.04; H 3.63; I 1.97; G 3; P 1.88; C 1.97; F 1.76; A 2.86
R8: K 2.84; V 2.1; P 2.83; E 2.65; A 2.93; M 1.87; D 2.13; H 2.88; G 1.94; I 1.71; T 1.89
S10: L 1.58; G 2.46; I 2.32; H 2.76; E 1.43; R 2.34
Q4: T 2.06; R 1.94; D 2; P 1.28; I 2.27; E 1.84
E11: D 1.85; R 2.15; G 1.54; I 1.72; M 3.05
K18: H 2.19; G 2.56; V 2.45; C 2.44; N 1.3; Q 1.81; P 2.61; S 2.39
A23: H 3.08; M 2.11; I 1.89; R 3.52; N 3.57; T 2.07
G6: W 2.83; L 2.07; M 2.32; C 1.06; A 2.12; D 2.04; P 1.95; Y 1.86
P3: W 2.66; D 2.79; N 1.96; C 1.62; T 1.98; Q 2.72; S 1.61; F 1.7; V 1.95
A7: L 2; F 2.41; M 1.77; I 1.79; Q 1.31; P 2.07
T5: A 2.07; G 3.11; Q 2.47
L24: A 3.59; H 1.83; P 1.23; N 2.58; T 2.27; R 4.53; C 3.32; Q 1.23; E 3.37; M 1.56
T12: H 1.87; L 2.87; N 2.66; G 1.46; Y 2.48; F 2.96
S22: R 1.51; F 2.18; P 3.4; V 1.8; K 1.33; Y 1.93; E 1.58
Q20: D 2.51; M 1.72; C 3; N 1.76; G 1.84; Y 2.31; T 3.01; F 1.73
F1: S 3.79; N 3.87; T 2.49; K 3.54; E 4.14; M 3.59; P 3.71; W 2.58
F16: K 2.31; H 2.07; G 2.38; C 2.62; E 1.54; N 1.93; Q 1.54
S19: N 1.31; G 2.82; P 1.77; I 2.35
A2: P 2.16; F 1.88; M 1.45; W 2.02; S 1.9; G 2.95; H 1
C17: P 1.9; V 2.31; I 2.98; L 1.42; A 2.9
F13: N 2.49; G 2; P 1.07; L 2.54; H 1.48; D 1.86
P9: W 1.65; C 3.58; E 1.18; H 2.82; T 3.29; D 1.23; L 1.06
